In the nanobody polyreactivity screen of Harvey et al. (2022):

Assay: yeast display, Sf9 membrane polyspecificity reagent, FACS + sequencing; frameworks hold sequencing errors
In short: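 A nanobody's polyreactivity label depends on the gate it was sorted from. Yeast display cells were stained with 10% biotinylated, detergent-solubilized Sf9 membrane reagent for 1 hour at 4 °C, enriched on streptavidin microbeads and sorted by FACS. The low and high (top ~1%) gates were set on anti-HA fluorescence for expression and streptavidin fluorescence for reagent binding.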

Sequence	polyreactivity (PSR sort gate)
QVQLVESGGGLVQAGGSLRLSCAASGSTFYYYAMGWYRQAPGKERELVATITSGASTNYADSVKGRFTISRDNAKNTVYLQMNSLKPEDTAVYYSNAGSLTSYLPWSSYDYWGQGTQVTVSS	low polyreactivity
QVQLVESGGGLVQAGGSLRLSCAASGSTFYYYAMGWYRQAPGKERELVAVITRGGGTYYADSVKGRFTISRDNAKNTVYLQMNSLKPEDTAVYYCNARQRSSTRKGYNYWGQGTQVTVSS	high polyreactivity
QVQLVESGGGLVQAGGSLRLSCAASGSTFYYYSMGWYRQAPGKERELVASISDDGSTNYADSVKGRFTISRDNAKNTVYLQMNSLKPEDTAVYYCAAVWWHQFGSAWYQMGYWGQGTQVTVSS	low polyreactivity
QVQLVESGGGLVQAGGSLRLSCAASGSTFYYYTMGWYRQATGKERELVAAITYRGGSTYADSVKGRFTISRDNAKNTVYLQMNSLKPEDTAVYYCAAVRRHPTHYDYWGQGTQVTVSS	high polyreactivity
QVQLVESGGGLVQAGGSLRLSCAASGSTGVYAMGWYRQAPGKERELVADITSGGNTDYADSVKGRFTISRDNAKNTVYLQMTSLKPEDTAVYYCAADDYYVLDYFWFIEYGYWGQGTQVTVSS	high polyreactivity
QVQLVESGGGLVQAGGSLRLSCAASGSTIADNAMGWYRQAPGKERELVAAITRSGVRTYYADSVKGRFTISRDNAKYTVYLQMNSLKPDDSAVYYCAKRTYPSRIYDYWGQGTQVTVSS	low polyreactivity
QVQLVESGGGLVQAGGSLRLSCAASGSTIDRYAMGWYIQAPGKEREFVAAISFSSASTYYADSVKGRFTISRDNAKNTVYLQMNSLKPEDTAVYYCNADFFDSGGSIEYDSWGQGTQVTVSS	low polyreactivity
QVQLVESGGGLVQAGGSLRLSCAASGSTIDWYGMGWYRQAPGKERELVAAINFSDGSTYYADSVKGRFTISRDNAKNTVYLQMNSLKPEDTAVYYCAAYTPSYGGRDYWGQGTQVTVSS	low polyreactivity
QVQLVESGGGLVQAGGSLRLSCAASGSTIDYYAMGWYRQAPGKERELVATISRGGSTNYADSVKGRFTISRDNAKNTVYLQMNSLKPEDTAVYYCAATYARYFYKYYYWGQGTQVTVSS	high polyreactivity
QVQLVESGGGLVQAGGSLRLSCAASGSTIEPNSMGWYRQAPGKEREFVAAITTRGGSTFYADSVKGRFTISRDNAKNTVYLQMNSLKPEDTAVYYCAADYYFVDYDYWGQGTQVTVSS	low polyreactivity
QVQLVESGGGLVQAGGSLRLSCAASGSTIFYNAMGWYSKAPGKERELVAAITDSGGSTYYADSVKGRFTISRDNAKNTVYLQMNSLKPEDTAVYYCAKRNFDNPIFDYWGQGTQVTVSS	low polyreactivity
QVQLVESGGGLVQAGGSLRLSCAASGSTIGDNAMGWYSQAPGKERELVASISWSGASTYYADSVKGRFTISRDNAKNTVYLQMNSLKPEDTAVYYCAVYYSYYSHLYHLLFYYWGQGTQVTVSS	low polyreactivity
QVQLVESGGGLVQAGGSLRLSCAASGSTIIAYAMGWYRQAPGKERELVAAITTGDSTNYADSVKGRFTISRDNAKNTVYLQMNSLKPEDTAVYYCNADATDFHFLSEIGSSQEGDYWGQGTQVTVSS	low polyreactivity
QVQLVESGGGLVQAGGSLRLSCAASGSTIIYNTMGWYRQAPGKERELVARITWSGGSTSYADSVKGRFTISRDNAKNTVYLQMNSLKPEDTAVYYCNRRVQARRYRYDYWGQGTQVTVSS	high polyreactivity
QVQLVESGGGLVQAGGSLRLSCAASGSTIKYYAMGWYRQAPGKDRELVAAINWSGDSTYYADSVKGRFTISRDNAKNTVYLQMHSLKPEETAVYYCAVRYQKRAYYGSNYWGQGTQVTVSS	high polyreactivity
QVQLVESGGGLVQAGGSLRLSCAASGSTILSNAMGWYRQAPGKERELVARITSGGSTHYADSVKGRFTISRDNAKNTVYLQMNSLKPEDTAVYYCNADYWFVEYDYWGQGTQVTVSS	low polyreactivity
QVQLVESGGGLVQAGGSLRLSCAASGSTIPRNALGWYRQATGKERELVPAISSGGSTYYADSVKWRFTISRDNAKNTVYLQMNRLKPEDTAVYYCAARLYWPIIVVDLYGYDYWGQGTQVTVSS	low polyreactivity
QVQLVESGGGLVQAGGSLRLSCAASGSTIQSNGMVWYRQAPGKERELVAAITSTDASTSYADSVKGRFTISRDNAKNTVYLQMNSLKPEDTAVYYCAADFPVASGAELDYWGLGTQVTVSS	low polyreactivity
QVQLVESGGGLVQAGGSLRLSCAASGSTIRFNAMGWYRQAPRKERELVAAISWRGGTTYADSVKGRFTISRDNAKNTVFLQMTSLKPEDTAVYYCAAGLYAQGKRYGYWGHGTQVTVSS	high polyreactivity
QVQLVESGGGLVQAGGSLRLSCAASGSTIRLNAMGWYRQAPGKERELVAAISWTGGSTYYADSVKGRFTISRDNAKNTVYLQMNSLKPEDTAVYYCAADWWQGTSHYWGGAYNYWGQGTQVTVSS	low polyreactivity
QVQLVESGGGLVQAGGSLRLSCAASGSTIRSYAMGWYRQAPGKERELVAVISSGDSTYYADSVKGRFTISRDNAKNTVYLQMNSLKPEDTAVYYCAADSYVLGRWYGYWGQGTQVTVSS	low polyreactivity
QVQLVESGGGLVQAGGSLRLSCAASGSTISGYAMGWYRQAPGKERELVATISRGGSTNYADSVKGRFTISRDNAKNTVYLQMNSLKPEDTAVYNCAAQTYVWWVKYHSWGQGTQVTVSS	low polyreactivity
